Laboratory results from patent US20030166036A1, “Protease and an aminopeptidase associated with development of benign prostatic hyperplasia (BPH)” (priority 2001, published 2003).

Legend:
PSA = biological target: T1, PSA (Homo sapiens, UniProt P07288); test: Incubation of PSA with lysyl endopeptidase C, cleavage followed by HIC-HPLC and N-terminal sequencing; type: biochemical
T1 construct: Unlike the purified mature PSA, pPSA was isolated from a recombinant expression system; from tissue; host or cells: seminal plasma
T1 sequence (P07288 25-261): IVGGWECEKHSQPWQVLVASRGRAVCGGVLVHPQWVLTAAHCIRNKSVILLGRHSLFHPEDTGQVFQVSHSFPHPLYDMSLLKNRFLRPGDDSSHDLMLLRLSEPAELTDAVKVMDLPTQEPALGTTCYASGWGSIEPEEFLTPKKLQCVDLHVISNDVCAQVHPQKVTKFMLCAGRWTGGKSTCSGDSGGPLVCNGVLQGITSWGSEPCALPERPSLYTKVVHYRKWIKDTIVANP
Description: (§1) High-performance hydrophobic interaction chromatography (HIC-HPLC) was performed using a polypropylaspartamide column (PolyLC, distributed by Western Analytical, Temecula, Calif.). The column was 4.6×250 mm in length with a 1000 Å pore size. Samples were applied in 1.5 M ammonium sulfate and eluted with a gradient. Buffers were prepared as follows. Buffer A consisted of 1.2 M sodium sulfate, 25 mM sodium phosphate, and a pH of 6.3, and Buffer B consisted of 50 mM sodium phosphate and 5% v/v 2-propanol. The gradient was 0-30% B for 1 minute, 30-60% B 10 minutes, followed by re-equilibration in Buffer A. High-sensitivity peak detection was obtained with a Varian Model 9070 (Varian Medical Systems, Palo Alto, Calif.) scanning fluorescence detector using an excitation of 232 nm and an emission of 334 nm to detect the tryptophan residues in protein.
N-terminal sequence analysis of the samples was performed on a PE-Applied Biosystems Model 492 amino acid sequencer (PE-Applied Biosystems, Foster City, Calif.). Purified PSA and peaks collected by HIC-HPLC were applied directly to Prosorb cartridges (PE-Applied Biosystems, Foster City, Calif.), washed three times with 0.1 ml 0.01% trifluoroacetic acid, and applied to the sequencer.
Samples of PSA and proPSA were incubated with 0.1% lysyl endopeptidase C (Wako Cemicals USA, Richmond, Va.) in PBS at pH 7 for the times indicated in the figures. The LysC reaction was quenched by the addition of a 10-fold molar excess of aprotinin prior to analysis by HIC-HPLC. The internal cleavage sites of the different HIC-HPLC peaks were determined by N-terminal sequencing.
We also examined the digestion of PSA with LysC in vitro to determine the relative susceptibility of the Lys145 and Lys182 sites.

proPSA = biological target: T2, proPSA (Homo sapiens, UniProt P07288); test: Incubation of proPSA with lysyl endopeptidase C, cleavage followed by HIC-HPLC; type: biochemical; conditions: recombinant pPSA (zymogen), 0.1% LysC in PBS pH 7
T2 construct: due to the altered folding in the zymogen form of PSA; made in house
T2 sequence (P07288 18-261 limits assumed): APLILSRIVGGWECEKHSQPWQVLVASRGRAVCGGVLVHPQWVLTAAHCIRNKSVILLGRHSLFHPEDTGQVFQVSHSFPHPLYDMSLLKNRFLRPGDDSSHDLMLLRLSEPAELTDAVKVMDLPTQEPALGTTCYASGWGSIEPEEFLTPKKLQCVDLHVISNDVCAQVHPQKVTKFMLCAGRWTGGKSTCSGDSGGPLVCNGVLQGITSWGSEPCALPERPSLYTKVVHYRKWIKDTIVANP
Description: as §1
Samples of PSA and proPSA were incubated with 0.1% lysyl endopeptidase C (Wako Cemicals USA, Richmond, Va.) in PBS at pH 7 for the times indicated in the figures. […] The internal cleavage sites of the different HIC-HPLC peaks were determined by N-terminal sequencing.
ProPSA (pPSA) was also incubated with LysC to determine if there was any difference between the cleavage of the Lys145 and Lys182 sites due to the altered folding in the zymogen form of PSA. […] The cleavage of the Lys182 and Lys145 sites in pPSA was also monitored by HIC-HPLC. […]

B1: LysC: lysyl endopeptidase C (Wako), commercial protease with wide specificity for lysine residues, used to cleave PSA in vitro (protein)
chain: GVSGSCNIDVVCPEGDGRRDIIRAVGAYSKSGTLACTGSLVNNTANDRKMYFLTAHHCGMGTASTAASIVVYWNYQNSTCRAPNTPASGANGDGSMSQTQSGSTVKATYATSDFTLLELNNAANPAFNLFWAGWDRRDQNYPGAIAIHHPNVAEKRISNSTSPTSFVAWGGGAGTTHLNVQWQPSGGVTEPGSSGSPIYSPEKRVLGQLHGGPSSCSATGTNRSDQYGRVFTSWTGGGAAASRLSDWLDPASTGAQFIDGLDSGGGTP
PSA; PSA digested with LysC in vitro
  Lys182 cleaved more rapidly than Lys145: approximately 30 times
PSA; after 30 minutes of incubation with LysC
  PSA cleaved at Lys182: 100%
PSA; mature PSA purified from seminal plasma, 0.1% LysC in PBS pH 7
  initial rate of cleavage at Lys182: 12 % per minute
PSA; mature PSA, 0.1% LysC in PBS pH 7, based on time points greater than 30 minutes
  rate of cleavage at Lys145: 0.3 % per minute
proPSA
  initial rate of cleavage of the Lys182: 8 % per minute
  rate of cleavage at Lys145: about 0.6 % per minute
